Measurements reported in patent publication US20020098537.

Tests used:
[1] = target: T1, novel protein having inhibitory activity on the protease activity of HGF activator (HAI-I), purified from MKN45 cell culture supernatant
T1 sequence (O43278 36-529, looked up): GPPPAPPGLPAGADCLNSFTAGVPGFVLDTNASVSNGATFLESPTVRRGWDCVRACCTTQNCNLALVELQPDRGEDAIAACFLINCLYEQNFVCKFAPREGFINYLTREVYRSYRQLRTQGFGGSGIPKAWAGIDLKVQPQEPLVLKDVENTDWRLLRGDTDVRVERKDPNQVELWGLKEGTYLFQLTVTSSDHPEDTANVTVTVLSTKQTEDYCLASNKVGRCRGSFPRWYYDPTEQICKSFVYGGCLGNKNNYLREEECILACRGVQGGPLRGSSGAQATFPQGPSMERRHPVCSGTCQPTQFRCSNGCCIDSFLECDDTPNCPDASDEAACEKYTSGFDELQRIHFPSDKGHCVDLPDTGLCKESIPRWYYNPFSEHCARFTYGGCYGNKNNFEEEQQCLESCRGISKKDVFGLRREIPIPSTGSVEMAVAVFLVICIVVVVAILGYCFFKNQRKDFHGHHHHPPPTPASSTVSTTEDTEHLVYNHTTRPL

[2] = target: single chain HGF (hepatocyte growth factor), P14210
Chain of single chain HGF (hepatocyte growth factor), P14210 (P14210 32-728): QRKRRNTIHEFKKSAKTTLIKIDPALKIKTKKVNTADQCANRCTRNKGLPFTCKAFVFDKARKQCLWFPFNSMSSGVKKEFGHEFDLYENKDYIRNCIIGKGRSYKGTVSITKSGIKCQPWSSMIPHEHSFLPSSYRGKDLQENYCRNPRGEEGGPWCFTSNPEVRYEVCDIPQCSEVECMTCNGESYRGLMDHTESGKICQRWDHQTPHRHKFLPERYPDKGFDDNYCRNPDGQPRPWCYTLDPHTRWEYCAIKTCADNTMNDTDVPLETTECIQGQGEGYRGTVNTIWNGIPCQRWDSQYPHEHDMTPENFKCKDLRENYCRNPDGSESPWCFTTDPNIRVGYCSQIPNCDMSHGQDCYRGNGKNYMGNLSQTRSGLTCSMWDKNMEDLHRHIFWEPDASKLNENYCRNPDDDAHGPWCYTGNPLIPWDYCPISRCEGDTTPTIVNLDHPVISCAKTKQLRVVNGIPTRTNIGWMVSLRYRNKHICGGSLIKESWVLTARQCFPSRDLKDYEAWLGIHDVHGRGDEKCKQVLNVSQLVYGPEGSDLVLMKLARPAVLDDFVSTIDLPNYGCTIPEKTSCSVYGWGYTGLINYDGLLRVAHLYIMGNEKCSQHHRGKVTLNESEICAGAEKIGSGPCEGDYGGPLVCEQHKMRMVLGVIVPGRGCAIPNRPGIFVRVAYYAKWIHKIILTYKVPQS

B1: serum-derived hepatocyte growth factor activator (HGF activator) (protein)
chain: VQLSPDLLATLPEPASPGRQACGRRHKKRTFLRPRIIGGSSSLPGSHPWLAAIYIGDSFCAGSLVHTCWVVSAAHCFSHSPPRDSVSVVLGQHFFNRTTDVTQTFGIEKYIPYTLYSVFNPSDHDLVLIRLKKKGDRCATRSQFVQPICLPEPGSTFPAGHKCQIAGWGHLDENVSGYSSSLREALVPLVADHKCSSPEVYGADISPNMLCAGYFDCKSDACQGDSGGPLACEKNGVAYLYGIISWGDGCGRLHKPGVYTRVANYVDWINDRIRPPRRLVAPS
[1]
  conversion of single chain HGF to double chain HGF by HGF activator (SDS-PAGE under reducing conditions, CBB staining); 10 ng protein, 5 ng HGF activator, 10 ug single chain HGF: Addition of the protein resulted in suppression of the activity of HGF activator converting single chain HGF to double chain HGF.
[2]
  conversion of single chain HGF to double chain HGF (SDS-PAGE under reducing conditions, CBB staining): the activity of HGF activator converting single chain HGF to double chain HGF
